In test [1] the target is horse serum butyrylcholinesterase (horse). Nature of the test: native gel or EMSA.
Test [2] shares this target. Nature of the test: native gel or EMSA. This is another data set of the same source.
Test [3] shares this target. Kind of test: SDS-PAGE without reducing agent.

“And” between values parts separate entries of the source, which are not always exact repeats. Equal entries are not always repeated.

For “horse serum butyrylcholinesterase (enzyme)”, the stoichiometry N in test [1] is 2 and 4; in test [2], 4; in test [3], 2.
